Target: β-galactosidase (UniProt P00722 2-1024 = β-galactosidase, limits assumed)
Assay: ELISA, plate coated with 1 µg β-gal per well, anti-FLAG-HRP detection
Description: FIGS. 1A-D illustrate ubiquibody expression and binding. FIG. 1A is a schematic depiction of pET28a constructs used to express ubiquibodies (“uAb”) in E. coli, which includes single chain Fv antibody fragment (“scFv”), GSGSG linker (“˜”), human C-terminus of Hsc70-interacting protein (“CHIP”) without the N-terminal TPR domain (“[…]”), a FLAG-tag (“F”) and a 6×His-tag (“H6”). FIG. 1B is a western blot of the soluble fractions isolated from BL21(DE3) E. coli cells expressing wild-type human CHIP, inactivated CHIPH260Q, CHIPΔTPR, scFv13R4, scFv13R4-uAb, scFv13-uAb and scFvD10-uAb. An equivalent amount of total protein was loaded in each lane and expression was assayed using anti-FLAG-HRP. FIG. 1C is a graph showing ELISA results where a plate was coated with 1 μg β-gal per well and incubated with 160 ng of purified protein per well. Samples were performed in triplicate and error bars represent the standard deviation of the mean. […]
Briefly, ELISAs were performed using a 96-well plate coated with antigen (β-gal, gpD or Hsp70) at a concentration of 10 μg/mL (1 μg of antigen per well) and incubated overnight at 4° C. […] The amount of bound anti-flag-HRP was determined by using SigmaFAST™ o-phenylenediamine dihydrochloride (OPD) tablets for detection of peroxidase activity at 492 nm.

Sequence of β-galactosidase (P00722 2-1024 limits assumed): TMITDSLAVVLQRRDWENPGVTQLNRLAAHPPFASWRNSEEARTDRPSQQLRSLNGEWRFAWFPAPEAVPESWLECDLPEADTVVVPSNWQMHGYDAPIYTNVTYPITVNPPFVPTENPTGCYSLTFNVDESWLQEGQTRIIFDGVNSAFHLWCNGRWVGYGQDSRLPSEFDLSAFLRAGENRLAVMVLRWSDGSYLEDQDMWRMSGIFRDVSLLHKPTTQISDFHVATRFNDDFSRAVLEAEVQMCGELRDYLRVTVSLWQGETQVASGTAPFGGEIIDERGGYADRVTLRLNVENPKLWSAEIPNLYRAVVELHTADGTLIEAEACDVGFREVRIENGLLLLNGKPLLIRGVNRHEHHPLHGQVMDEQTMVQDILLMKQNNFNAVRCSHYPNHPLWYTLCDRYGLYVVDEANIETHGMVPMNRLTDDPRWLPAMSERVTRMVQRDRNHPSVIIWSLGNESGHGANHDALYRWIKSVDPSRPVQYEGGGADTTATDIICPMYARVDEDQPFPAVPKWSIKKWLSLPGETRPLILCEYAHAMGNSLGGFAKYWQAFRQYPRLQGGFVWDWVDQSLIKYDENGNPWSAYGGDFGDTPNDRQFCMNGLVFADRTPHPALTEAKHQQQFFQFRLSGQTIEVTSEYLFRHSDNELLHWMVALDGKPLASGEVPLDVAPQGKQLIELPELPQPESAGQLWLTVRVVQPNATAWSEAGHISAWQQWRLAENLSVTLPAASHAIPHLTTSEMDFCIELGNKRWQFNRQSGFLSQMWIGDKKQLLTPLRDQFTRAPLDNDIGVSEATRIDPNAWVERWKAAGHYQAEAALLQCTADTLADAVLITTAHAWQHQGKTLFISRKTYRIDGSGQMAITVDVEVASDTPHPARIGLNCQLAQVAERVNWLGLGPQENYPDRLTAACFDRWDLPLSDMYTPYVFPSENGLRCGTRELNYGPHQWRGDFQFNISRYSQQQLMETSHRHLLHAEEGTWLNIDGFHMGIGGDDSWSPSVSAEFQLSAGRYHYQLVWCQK

B1: CHIPΔTPR (Construct 3: hCHIPdTPR-FLAGtag-His6tag) (enzyme)
chain: MGRLNFGDDIPSALRIAKKKRWNSIEERRIHQESELHSYLSRLIAAERERELEECQRNHEGDEDDSHVRAQQACIEAKHDKYMADMDELFSQVDEKRKKRDIPDYLCGKISFELMREPCITPSGITYDRKDIEEHLQRVGHFDPVTRSPLTQEQLIPNLAMKEVIDAFISENGWVEDYVDGADYKDDDDKGHHHHHH
notes: Control protein, purified from E. coli
Question: Does B1 bind?
Answer: Result: no binding (tested: 160 ng of purified protein per well)

— patent US20190233507A1 (CORNELL UNIVERSITY, published 2019)
